# According to the supplement of paper PMC10567573:
# B1: CDKN1A (parent)
# chain: RRQTSMTDFYHSKRRLIFSKRKP
# B2: NP_006221.1 (parent)
# chain: CQPISFSGFGAEDDDLGGLGLGP
# Variants of: B1
# Experiment: protein stability index of a GFP-peptide fusion (GPS, HEK-293T) (PSI 1-6); higher = more stable
# Details: c terminus: native
row,Variant,protein stability index
1,RRQTSMTDFYHSKRRLLFSKRKP,3.47
2,RRQTSMTTFYHSKRRLIFSKRKP,3.06
3,SRQTSMTDFYHSKRRLIFSKRKP,2.99
4,RRQTSMCDFYHSKRRLIFSKRKP,1.94
5,RRQTSMTDFYHSKRRLIFSKRRP,4.35
6,RRFTSMTDFYHSKRRLIFSKRKP,2.24
7,RRQTSMTDFYISKRRLIFSKRKP,2.03
8,RRQTSMTDFQHSKRRLIFSKRKP,2.75
9,RRQTSMTDFMHSKRRLIFSKRKP,3.11
10,RRQTSMTDFYHWKRRLIFSKRKP,2.39
11,RRTTSMTDFYHSKRRLIFSKRKP,2.71
12,RRQTSMTDFYHSYRRLIFSKRKP,2.37
13,RRQTSMTDFYHSKRRLIFSKRYP,2.55
14,RRQTSMTDFYHSKRRLIFHKRKP,1.53
15,RRQTSMHDFYHSKRRLIFSKRKP,2.4
16,RRQTSMTDFYHSARRLIFSKRKP,3
17,RRQTSMTDFYHSKRCLIFSKRKP,3.8
18,RRQTSMTDFYHSKRRLIFSKSKP,3.09
19,RRQTSMTDFYHSKRRLISSKRKP,3.17
20,RRQTSMTDFYHSKRRHIFSKRKP,2.87
21,RKQTSMTDFYHSKRRLIFSKRKP,1.75
22,RRQTSMTDFYHEKRRLIFSKRKP,2.92

row,Variant,protein stability index
1,RRQTSMTDFYHSKDRLIFSKRKP,2.81
2,RRGTSMTDFYHSKRRLIFSKRKP,3.86
3,RRQTSMTDFYQSKRRLIFSKRKP,2.55
4,RRQTSMTDFYHSKIRLIFSKRKP,2.18
5,RRQTGMTDFYHSKRRLIFSKRKP,3.9
6,RRQTSMTDTYHSKRRLIFSKRKP,2.25
7,RAQTSMTDFYHSKRRLIFSKRKP,2.1
8,RRQTSMTDFYHSKRRLIISKRKP,2.23
9,RRQTYMTDFYHSKRRLIFSKRKP,2.19
10,RRQTSMTDFCHSKRRLIFSKRKP,1.4
11,RRQTSMTDFYLSKRRLIFSKRKP,3.32
12,RRQTSMTDFYYSKRRLIFSKRKP,1.66
13,RRQTSMTDFYHSKRRLIFSKRKF,2.76
14,RDQTSMTDFYHSKRRLIFSKRKP,2.5
15,RRQTSMTGFYHSKRRLIFSKRKP,2.29
16,RRQVSMTDFYHSKRRLIFSKRKP,3.23
17,RLQTSMTDFYHSKRRLIFSKRKP,1.97
18,RRQTSMTDFYHSKRRPIFSKRKP,3.36
19,RRQESMTDFYHSKRRLIFSKRKP,3.64
20,RRQTSMTDLYHSKRRLIFSKRKP,2.24
21,RRQTSMTLFYHSKRRLIFSKRKP,2.32
22,RRQTSMTDFEHSKRRLIFSKRKP,2.83

row,Variant,protein stability index
1,RRQTSWTDFYHSKRRLIFSKRKP,2.56
2,RRQTSMTDFYHSKRRLIFSKRSP,3.2
3,RRQTSMTDFYHSKMRLIFSKRKP,3.31
4,RRQTSMTDFYHSKWRLIFSKRKP,3.61
5,RRQTSMTDFYHSKRRLIESKRKP,3.49
6,RRQTSMTDFYHSKRRLKFSKRKP,1.86
7,RRQTSMTDFYHSKRMLIFSKRKP,3.54
8,GRQTSMTDFYHSKRRLIFSKRKP,1.02
9,RRQTMMTDFYHSKRRLIFSKRKP,2.73
10,RRQTSMTDFYHSKRILIFSKRKP,3
11,RRQTSMTDFYHSKRRLIFSKRKY,3.15
12,RRQTSMTDFYHSKRRSIFSKRKP,2.86
13,RRQTSMTDFYHCKRRLIFSKRKP,2.98
14,RRQTSMTDFYHSKRRLIFIKRKP,2.54
15,RRQTSMTDFYHSKRRLIFTKRKP,1.77
16,RRQTSMTDFYHVKRRLIFSKRKP,2.01
17,RRQTSHTDFYHSKRRLIFSKRKP,2.36
18,RRQTSMTDFYHSKRRLIFSKRKK,2.95
19,RRQTSMTDFYHSKRRLIKSKRKP,2.26
20,RRQTSMTDFYHSKRRLIFSKRVP,3.36
21,RRQTSMTDFYHMKRRLIFSKRKP,2.75
22,RRQTSMTDFYHSKRRGIFSKRKP,3.3

row,Variant,protein stability index
1,RRQTSMTDFYHSKRTLIFSKRKP,2.34
2,RRQTSMTDFYPSKRRLIFSKRKP,2.49
3,RRQTSMTDFYHSKRRTIFSKRKP,2.17
4,RRQTSMTDFYHSKRRCIFSKRKP,2.32
5,RRQTSMTDFYHSKRRLIFSKRAP,1.72
6,QRQTSMTDFYHSKRRLIFSKRKP,1.72
7,RRQTCMTDFYHSKRRLIFSKRKP,1.67
8,RRQTSMTDFYHSKRRLIFSKRQP,2.42
9,LRQTSMTDFYHSKRRLIFSKRKP,1.96
10,RRQTSMTDFYHSKRRLIRSKRKP,2.05
11,RRQTSMTDFYHSKRRLIFSKYKP,2.97
12,RRQTSMTDFYHSKRYLIFSKRKP,2.23
13,RRQTSMTDFYHSKRRLIFCKRKP,2.57
14,RRQTSLTDFYHSKRRLIFSKRKP,2.93
15,RRQTSMTDFYHSKRRLIWSKRKP,2.28
16,RRQTSMTDVYHSKRRLIFSKRKP,2.43
17,RRQTSMTDFYHSNRRLIFSKRKP,2.55
18,RRRTSMTDFYHSKRRLIFSKRKP,2.49
19,RRQTSMTDFYHSKRRLIFSKFKP,2.03
20,RRQTSMTDYYHSKRRLIFSKRKP,3.43

# Variants of: B2
# Experiment: as above
# Details: c terminus: native
row,Variant,protein stability index
1,CQPISFSGFGAEDDDLGCLGLGP,2.35
2,CQPISFSGFGAEMDDLGGLGLGP,2.24
3,CQPISFSGFGAEDDDKGGLGLGP,2.25
4,CQPISFSGHGAEDDDLGGLGLGP,2.42
5,CQPISFSGFGAPDDDLGGLGLGP,2.07
6,CQPISFSGWGAEDDDLGGLGLGP,2.53
7,CQPYSFSGFGAEDDDLGGLGLGP,2.09
8,CQPISFSGFGAEDRDLGGLGLGP,1.99
9,CQPISTSGFGAEDDDLGGLGLGP,3.93
10,CQPISFSWFGAEDDDLGGLGLGP,2.19
11,CQPISFSPFGAEDDDLGGLGLGP,3.55
12,CQPISFSGFGAEDDNLGGLGLGP,2.18
13,CQPISFSGFGAEDDDLGGLGLGH,3.99
14,CQPISFSGFGAEDDDLGGLGLMP,2.32
15,CQPISFSGFGAEDDDLGGLGLLP,2.46
16,CQPISFSGFGPEDDDLGGLGLGP,2.17
17,CQPISFSGFGLEDDDLGGLGLGP,1.81
18,CQPISFSGFGAEDDDLGMLGLGP,1.99
19,CQPISFSGKGAEDDDLGGLGLGP,2.4
20,CQPISFSGFGAEDDDLGGLELGP,2.81
21,CQPISFSGFGAEDDDLKGLGLGP,2.08
22,IQPISFSGFGAEDDDLGGLGLGP,2.12

row,Variant,protein stability index
1,CQVISFSGFGAEDDDLGGLGLGP,2.14
2,CQPISFSGFGAEDIDLGGLGLGP,2.21
3,CQPISFSIFGAEDDDLGGLGLGP,2.06
4,CQPISFSGFGAEDDDLGGLGLGC,3.17
5,CQHISFSGFGAEDDDLGGLGLGP,2.06
6,CQPISFSGFGASDDDLGGLGLGP,2.44
7,CQPISFSGFGAEDDDDGGLGLGP,2.22
8,CQPISFSFFGAEDDDLGGLGLGP,2.39
9,CQPSSFSGFGAEDDDLGGLGLGP,2.31
10,CQPHSFSGFGAEDDDLGGLGLGP,2.25
11,CIPISFSGFGAEDDDLGGLGLGP,2.16
12,CQPISFSGIGAEDDDLGGLGLGP,2.35
13,CQPISFSGYGAEDDDLGGLGLGP,2.01
14,CQPISFSGFGAEDDDLMGLGLGP,1.7
15,CQPLSFSGFGAEDDDLGGLGLGP,2.11
16,CQPISFSGFGAEDDQLGGLGLGP,2.67
17,CQCISFSGFGAEDDDLGGLGLGP,2.12
18,CQSISFSGFGAEDDDLGGLGLGP,2.37
19,CQPNSFSGFGAEDDDLGGLGLGP,2.45
20,CQPISFSGFGAEDDCLGGLGLGP,2.18
21,CQPISFSGFGAKDDDLGGLGLGP,2.17
22,CQPISASGFGAEDDDLGGLGLGP,3.88

row,Variant,protein stability index
1,CKPISFSGFGAEDDDLGGLGLGP,2.22
2,CQPISFSGFGAECDDLGGLGLGP,2.42
3,CQPISFSGFGAEDDDLGGLGLGM,2.91
4,CQPISFSGFGAEDDDLGGLGLGF,3.04
5,CQPISFSGFGAEDDDLEGLGLGP,2.36
6,CMPISFSGFGAEDDDLGGLGLGP,2.16
7,CQPISFSGFGAEDEDLGGLGLGP,2.17
8,CQPISWSGFGAEDDDLGGLGLGP,2.22
9,CQPVSFSGFGAEDDDLGGLGLGP,2.54
10,CQPISFSGFGAEDDDLGGIGLGP,2.13
11,CQPISFSGFGAEDDDLGGLGLPP,4.39
12,CQPISFEGFGAEDDDLGGLGLGP,2.72
13,CQPISFSGFVAEDDDLGGLGLGP,2.2
14,CQPISFSGLGAEDDDLGGLGLGP,2.23
15,CWPISFSGFGAEDDDLGGLGLGP,2.13
16,CQPISFSGFGAEDDDPGGLGLGP,2.15
17,CQPISFSGFGAEDDDLGGLGLGD,5.01
18,CQPISFSGFGAEDPDLGGLGLGP,2.19
19,CQPFSFSGFGAEDDDLGGLGLGP,2.12
20,CQPISFSGFGAEVDDLGGLGLGP,2.28
21,CQPIQFSGFGAEDDDLGGLGLGP,2.24
22,CQPISFSGFGAEDDDLGGLGLIP,2.37

row,Variant,protein stability index
1,CQPISFSGFNAEDDDLGGLGLGP,2.04
2,CQPISFSGFGAEDDDLGGLGLFP,2.4
3,CQPISFSGFGAEDDKLGGLGLGP,2.2
4,CQPISCSGFGAEDDDLGGLGLGP,3.41
5,SQPISFSGFGAEDDDLGGLGLGP,2.17
6,MQPISFSGFGAEDDDLGGLGLGP,2.34
7,CQPIEFSGFGAEDDDLGGLGLGP,2.99
8,CQPISFSGFMAEDDDLGGLGLGP,2.29
9,CQPISFSGFGAEDDDQGGLGLGP,2.27
10,CQPISISGFGAEDDDLGGLGLGP,3.63
11,CQPISFSGFGAEDDDLGGLGLGI,2.95
12,CQPISFSGFGAEDDDLCGLGLGP,2.2
13,PQPISFSGFGAEDDDLGGLGLGP,2.33
14,CQPISFSGFGAEDSDLGGLGLGP,2.05
15,CQPISFSGFGAEDDVLGGLGLGP,2.29
16,CQPISFSGFGAEDQDLGGLGLGP,2.11
17,CQPMSFSGFGAEDDDLGGLGLGP,2.21
18,CQPISFSGFGAEDDDLGGLRLGP,3.93
19,CQPISFSGFGAEDDDLNGLGLGP,2.36
20,CQPISFLGFGAEDDDLGGLGLGP,2.43
21,WQPISFSGFGAEDDDLGGLGLGP,1.91
22,CQPISFSGFGAEDDDLGGLGLDP,2.15

row,Variant,protein stability index
1,CQPIWFSGFGAEDDDLGGLGLGP,2.58
2,CQPISFSDFGAEDDDLGGLGLGP,2.05
3,CQPISFSGFGAEDDDLGGLGSGP,5.12
4,CQPISFSGFGAEDDDMGGLGLGP,2.45
5,CQFISFSGFGAEDDDLGGLGLGP,1.94
6,CQPISFSGFGAEDDDNGGLGLGP,2.07
7,CQPISFSGFGAEDDDLGGKGLGP,1.99
8,CEPISFSGFGAEDDDLGGLGLGP,2.43
9,YQPISFSGFGAEDDDLGGLGLGP,2.18
10,CQPISFSGFGAEDDDLGGLGAGP,4.88
11,CQPISFSGFGAEDMDLGGLGLGP,2.29
12,CQPISFSGFGAEDDYLGGLGLGP,2.35
13,CQPTSFSGFGAEDDDLGGLGLGP,2.47
14,CQPISFSGFGAEDDDLGGLGLTP,2.22
15,CQPISFSGFGAEKDDLGGLGLGP,1.93
16,CQPISFSGFGALDDDLGGLGLGP,1.88
17,CQPISFSMFGAEDDDLGGLGLGP,2.23
18,CQPISFSGFGAYDDDLGGLGLGP,2.12
19,CQPISFSGFGAEDDDLGGGGLGP,2.87
20,CQPISFSGFGAEDDDLGSLGLGP,2.24
